Experimental data reported in the supplement of paper PMC9732359.
± gives the uncertainty stated by the source.

Assay: protein stability index of a GFP-peptide fusion (yeast GPS) (PSI 1-4); higher = more stable; sorted into four equal gates, so the index is relative within each strain
In short: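 Plasmids in a pooled yeast library fused tiled 17-residue yeast protein peptides downstream of GFP and also expressed Cherry. Mid-log cultures grown without leucine were sorted into four equal gates by GFP/Cherry fluorescence ratio. Each gate's plasmids were PCR-amplified and Illumina-sequenced, and reads were matched to strains by barcodes. The protein stability index is derived by multiplying each gate's read frequency by its gate number and summing the results.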

KQREIVKAFLSIFEDAI [NUT1]
protein stability index (doa10∆): 1.92 ± 0.081 | protein stability index (pdr5∆): 1.65 ± 0.071 | protein stability index (san1∆): 2.38 ± 0.19 | protein stability index (ubr1∆): 1.76 ± 0.1

DWPTYVDQNPLTMHKII [SRB8]
protein stability index (doa10∆): 2.45 ± 0.09 | protein stability index (pdr5∆): 2.76 ± 0.08 | protein stability index (san1∆): 2.69 ± 0.074 | protein stability index (ubr1∆): 2.91 ± 0.07

VKEEYDIWQSRDQGNDS [YIL149C/MLP2]
protein stability index (pdr5∆): 3.5 ± 0.19 | protein stability index (san1∆): 3.33 ± 0.074 | protein stability index (ubr1∆): 3.34 ± 0.11

HGHLGFLPRKRAASIRA [RPL3]
protein stability index (doa10∆): 2.1 ± 0.086 | protein stability index (pdr5∆): 2.44 ± 0.067 | protein stability index (san1∆): 2.79 ± 0.055 | protein stability index (ubr1∆): 2.2 ± 0.077

WAVTLDTSRPDLEWQEL [DSN1]
protein stability index (doa10∆): 3.35 ± 0.072 | protein stability index (pdr5∆): 3.18 ± 0.065 | protein stability index (san1∆): 3.13 ± 0.047 | protein stability index (ubr1∆): 3.14 ± 0.033

GAQFSRSYDLTRHQNTI [RPN4]
protein stability index (doa10∆): 1.16 ± 0.12 | protein stability index (pdr5∆): 1.67 ± 0.11 | protein stability index (san1∆): 1.85 ± 0.18 | protein stability index (ubr1∆): 2.53 ± 0.099

FGRTLASVTKEILGTAQ [RPL12A]
protein stability index (doa10∆): 1.46 ± 0.1 | protein stability index (pdr5∆): 1.53 ± 0.047 | protein stability index (san1∆): 1.38 ± 0.084 | protein stability index (ubr1∆): 1.62 ± 0.078

NYGSSLQWHAMIELICS [AAR2]
protein stability index (doa10∆): 1.31 ± 0.13 | protein stability index (pdr5∆): 1.22 ± 0.13 | protein stability index (san1∆): 1.1 ± 0.16 | protein stability index (ubr1∆): 1.34 ± 0.15

MKQYSYLMDSKNVRTRI [RRI1]
protein stability index (pdr5∆): 2.6 ± 0.26 | protein stability index (ubr1∆): 2.94 ± 0.22

GKIVSQRGKWNLKYLDN [RGR1]
protein stability index (doa10∆): 2.28 ± 0.074 | protein stability index (pdr5∆): 2.64 ± 0.068 | protein stability index (san1∆): 2.37 ± 0.091 | protein stability index (ubr1∆): 2.17 ± 0.06

DQFRDVEITFGKEFGDV [RRP45]
protein stability index (doa10∆): 3.21 ± 0.1 | protein stability index (pdr5∆): 3.27 ± 0.063 | protein stability index (san1∆): 3.54 ± 0.086 | protein stability index (ubr1∆): 3.18 ± 0.067

SKRRITEELSITGEKLD [SMC1]
protein stability index (doa10∆): 2.17 ± 0.08 | protein stability index (pdr5∆): 2.22 ± 0.072 | protein stability index (san1∆): 2.18 ± 0.1 | protein stability index (ubr1∆): 2.01 ± 0.078

PLRLRLYDNFVSKFYDK [RPN9]
protein stability index (doa10∆): 3.17 ± 0.068 | protein stability index (pdr5∆): 3.18 ± 0.068 | protein stability index (san1∆): 3.17 ± 0.064 | protein stability index (ubr1∆): 2.96 ± 0.079

VPFESLQGVTYPVLRKL [YIL149C/MLP2]
protein stability index (doa10∆): 2.82 ± 0.11 | protein stability index (pdr5∆): 2.56 ± 0.075 | protein stability index (san1∆): 2.32 ± 0.12 | protein stability index (ubr1∆): 2.27 ± 0.068

NNIIAEGIEKMGVRTFS [FAS2]
protein stability index (doa10∆): 2.7 ± 0.22 | protein stability index (san1∆): 2.23 ± 0.12 | protein stability index (ubr1∆): 2.69 ± 0.12

NSEISNLPKDKSGIPEF [SSN2]
protein stability index (doa10∆): 2.98 ± 0.087 | protein stability index (pdr5∆): 3 ± 0.11 | protein stability index (san1∆): 2.9 ± 0.072 | protein stability index (ubr1∆): 3.33 ± 0.076

EKGLNELSIRDVTHTLG [SMC4]
protein stability index (doa10∆): 1.34 ± 0.14 | protein stability index (pdr5∆): 2.42 ± 0.092 | protein stability index (san1∆): 2.48 ± 0.17 | protein stability index (ubr1∆): 1.57 ± 0.1

VTQSNILSQQFDKIIKI [SRB8]
protein stability index (doa10∆): 2.72 ± 0.07 | protein stability index (pdr5∆): 2.96 ± 0.071 | protein stability index (san1∆): 2.95 ± 0.056 | protein stability index (ubr1∆): 2.89 ± 0.045

ESTSSTEEVEALLQRLK [MTW1]
protein stability index (ubr1∆): 3.23 ± 0.19

MYGLTMEWPKDMLKYKE [ITC1]
protein stability index (doa10∆): 3.53 ± 0.17 | protein stability index (pdr5∆): 3.1 ± 0.28 | protein stability index (ubr1∆): 3.07 ± 0.2

SFDFGNENEDEDEGTLN [ARP9]
protein stability index (doa10∆): 3.56 ± 0.14 | protein stability index (pdr5∆): 3.38 ± 0.25 | protein stability index (san1∆): 3.41 ± 0.1

ESTTEATGNESQDATKV [YLR335W/NUP2]
protein stability index (doa10∆): 3.04 ± 0.071 | protein stability index (pdr5∆): 3.23 ± 0.081 | protein stability index (san1∆): 3.12 ± 0.11 | protein stability index (ubr1∆): 3.21 ± 0.075

KEISTRVFNAKDTTGPK [YCS4]
protein stability index (doa10∆): 3.04 ± 0.11 | protein stability index (pdr5∆): 2.91 ± 0.13 | protein stability index (san1∆): 3.21 ± 0.081 | protein stability index (ubr1∆): 2.99 ± 0.089

VLKTLEYKLATYGVPGS [NUT1]
protein stability index (doa10∆): 2.75 ± 0.068 | protein stability index (pdr5∆): 2.54 ± 0.066 | protein stability index (san1∆): 3.27 ± 0.045 | protein stability index (ubr1∆): 2.18 ± 0.08

AEWSLVRIYSGLLKRGD [SNU114]
protein stability index (doa10∆): 2.95 ± 0.093 | protein stability index (pdr5∆): 3.27 ± 0.1 | protein stability index (san1∆): 3.26 ± 0.079 | protein stability index (ubr1∆): 3.29 ± 0.12

VTLSQLVSVTSTLQHFQ [MED8]
protein stability index (doa10∆): 1.9 ± 0.029 | protein stability index (pdr5∆): 2.02 ± 0.031 | protein stability index (san1∆): 1.96 ± 0.037 | protein stability index (ubr1∆): 1.87 ± 0.02

GPSATDPETTATQKESL [RGR1]
protein stability index (doa10∆): 2.43 ± 0.062 | protein stability index (pdr5∆): 2.87 ± 0.071 | protein stability index (san1∆): 1.66 ± 0.11 | protein stability index (ubr1∆): 2.21 ± 0.048

ANIFRIHSKSMSVERGI [RPT1]
protein stability index (doa10∆): 3.16 ± 0.11 | protein stability index (pdr5∆): 3.01 ± 0.14 | protein stability index (san1∆): 3.18 ± 0.13 | protein stability index (ubr1∆): 2.9 ± 0.13

LKKGEVSLGTSIMAVTF [PRE3]
protein stability index (pdr5∆): 1.67 ± 0.23 | protein stability index (san1∆): 1.13 ± 0.18 | protein stability index (ubr1∆): 1.13 ± 0.18

FNGAQLKAVTVEAGMIA [RPT5]
protein stability index (doa10∆): 2.73 ± 0.28 | protein stability index (pdr5∆): 2.62 ± 0.15 | protein stability index (ubr1∆): 2.03 ± 0.19

LGVVFGRGGSGWKPYYK [YML031W/NDC1]
protein stability index (san1∆): 3.4 ± 0.12

TLTASPDGTLIASAGKD [ASC1]
protein stability index (doa10∆): 2.86 ± 0.093 | protein stability index (pdr5∆): 3.19 ± 0.1 | protein stability index (san1∆): 3.12 ± 0.065 | protein stability index (ubr1∆): 3.14 ± 0.063

LPEQLKSGKFCSHCGCV [SNM1]
protein stability index (doa10∆): 2.79 ± 0.084 | protein stability index (pdr5∆): 3.11 ± 0.15 | protein stability index (san1∆): 2.89 ± 0.076 | protein stability index (ubr1∆): 2.7 ± 0.071

IIESHLIQLQNIFKAEM [CSN9]
protein stability index (doa10∆): 2.75 ± 0.1 | protein stability index (pdr5∆): 3.14 ± 0.11 | protein stability index (san1∆): 2.85 ± 0.088 | protein stability index (ubr1∆): 2.74 ± 0.073

LVDVMTTQGGLTSVTRH [RPO21]
protein stability index (doa10∆): 2.14 ± 0.1 | protein stability index (pdr5∆): 2.38 ± 0.072 | protein stability index (san1∆): 2.1 ± 0.09 | protein stability index (ubr1∆): 2.3 ± 0.069

YLIKLLGFEVKDQALIG [SIR2]
protein stability index (doa10∆): 1.92 ± 0.061 | protein stability index (pdr5∆): 2.08 ± 0.06 | protein stability index (san1∆): 2.1 ± 0.061 | protein stability index (ubr1∆): 2.73 ± 0.087

TIPILESDSKATLQSNE [DSN1]
protein stability index (doa10∆): 2.8 ± 0.12 | protein stability index (pdr5∆): 2.16 ± 0.11 | protein stability index (san1∆): 2.36 ± 0.16 | protein stability index (ubr1∆): 2.67 ± 0.081

IVALTNAKDKERLQLLE [SMC3]
protein stability index (doa10∆): 3.22 ± 0.19 | protein stability index (pdr5∆): 3.29 ± 0.13 | protein stability index (san1∆): 3.01 ± 0.07 | protein stability index (ubr1∆): 3.21 ± 0.11

VSKEQFLKDADVECIKA [YJL039C/NUP192]
protein stability index (doa10∆): 1.45 ± 0.043 | protein stability index (pdr5∆): 1.61 ± 0.059 | protein stability index (san1∆): 2.17 ± 0.079 | protein stability index (ubr1∆): 1.89 ± 0.042

ILTPESQLKKTKAQQKT [RPL7B]
protein stability index (doa10∆): 2.86 ± 0.095 | protein stability index (pdr5∆): 2.89 ± 0.11 | protein stability index (san1∆): 2.91 ± 0.076 | protein stability index (ubr1∆): 2.86 ± 0.048

VNASVDVDQHGNDNNSD [SWI3]
protein stability index (doa10∆): 3.13 ± 0.085 | protein stability index (pdr5∆): 3.46 ± 0.081 | protein stability index (san1∆): 3.52 ± 0.059 | protein stability index (ubr1∆): 3.3 ± 0.038

LTFILGQLLSVKFLVYQ [YML031W/NDC1]
protein stability index (doa10∆): 1.53 ± 0.081 | protein stability index (pdr5∆): 2.14 ± 0.12 | protein stability index (san1∆): 1.51 ± 0.19 | protein stability index (ubr1∆): 1.69 ± 0.097

NEWIKAQEDVPYLLPYI [QCR7]
protein stability index (doa10∆): 2.42 ± 0.095 | protein stability index (pdr5∆): 2.46 ± 0.078 | protein stability index (san1∆): 2.6 ± 0.077 | protein stability index (ubr1∆): 2.5 ± 0.056

VVGQNQLIDQFEWDISN [SNF5]
protein stability index (doa10∆): 2.52 ± 0.093 | protein stability index (pdr5∆): 2.62 ± 0.1 | protein stability index (san1∆): 2.9 ± 0.062 | protein stability index (ubr1∆): 3 ± 0.12

GVARNFHFAIEQISNNS [SIN4]
protein stability index (doa10∆): 2.8 ± 0.1 | protein stability index (pdr5∆): 2.13 ± 0.075 | protein stability index (san1∆): 2.08 ± 0.064 | protein stability index (ubr1∆): 2.97 ± 0.062

NDLRVSLNEKNALHTER [SMC1]
protein stability index (doa10∆): 3.11 ± 0.11 | protein stability index (pdr5∆): 3.24 ± 0.096 | protein stability index (san1∆): 2.67 ± 0.11 | protein stability index (ubr1∆): 2.81 ± 0.089

NIVHNFKERQMMVSYPK [AAR2]
protein stability index (doa10∆): 3.04 ± 0.13 | protein stability index (pdr5∆): 2.33 ± 0.1 | protein stability index (san1∆): 1.9 ± 0.15 | protein stability index (ubr1∆): 2.19 ± 0.18

SEDVSRDHEKDTYRTLM [YIL149C/MLP2]
protein stability index (doa10∆): 3.36 ± 0.047 | protein stability index (pdr5∆): 3.41 ± 0.051 | protein stability index (san1∆): 3.43 ± 0.035 | protein stability index (ubr1∆): 3.33 ± 0.047

SNTIDELSTDIILKTRQ [SRB7]
protein stability index (doa10∆): 2.96 ± 0.076 | protein stability index (pdr5∆): 3.19 ± 0.083 | protein stability index (san1∆): 3.18 ± 0.089 | protein stability index (ubr1∆): 3.03 ± 0.063

ANHDDQDDIDEMVENSS [SRP68]
protein stability index (doa10∆): 3.1 ± 0.1 | protein stability index (pdr5∆): 3.2 ± 0.11 | protein stability index (san1∆): 3.14 ± 0.095 | protein stability index (ubr1∆): 3.13 ± 0.07

ADDADIEMKDVSSKPSK [MED1]
protein stability index (doa10∆): 3.17 ± 0.1 | protein stability index (pdr5∆): 3.29 ± 0.11 | protein stability index (san1∆): 2.95 ± 0.065 | protein stability index (ubr1∆): 3.26 ± 0.066

GDPALVYKFMSLAKSSA [ECM29]
protein stability index (doa10∆): 3.22 ± 0.11 | protein stability index (pdr5∆): 2.77 ± 0.08 | protein stability index (san1∆): 2.54 ± 0.089 | protein stability index (ubr1∆): 3.09 ± 0.054
